Data published in patent US20230002480A1.

Tests used:
Test in all cases: cell-based or functional assay
[1] = target: HIV-1 Env of pseudovirus 1012_11_TC21_3257 (HIV-1)
[2] = target: HIV-1 Env of pseudovirus HIV-16845-2.22 (HIV-1)
[3] = target: HIV-1 Env of pseudovirus R3265.c06 (HIV-1)
[4] = target: HIV-1 Env of pseudovirus T255-34 (HIV-1)
[5] = target: HIV-1 Env of pseudovirus CNE21 (HIV-1)
[6] = target: HIV-1 Env of pseudovirus ZM214M.PL15 (HIV-1)
[7] = target: HIV-1 Env of pseudovirus HIV-001428-2.42 (HIV-1)
[8] = target: HIV-1 Env of pseudovirus 211-9 (HIV-1)
[9] = target: HIV-1 Env of pseudovirus CNE30 (HIV-1)
[10] = target: HIV-1 Env of pseudovirus QH0692.42 (HIV-1)
[11] = target: HIV-1 Env of pseudovirus Ce2060_G9 (HIV-1)
[12] = target: HIV-1 Env of pseudovirus 620345.c01 (HIV-1)
[13] = target: HIV-1 Env of pseudovirus 1006_11_C3_1601 (HIV-1)
[14] = target: HIV-1 Env of pseudovirus 1394C9G1(Rev-) (HIV-1)
[15] = target: HIV-1 Env of pseudovirus CNE8 (HIV-1)
[16] = target: HIV-1 Env of pseudovirus 7030102001E5(Rev-) (HIV-1)
[17] = target: HIV-1 Env of pseudovirus TRO.11 (HIV-1)
[18] = target: HIV-1 Env of pseudovirus Du422.1 (HIV-1)
[19] = target: HIV-1 Env of pseudovirus REJO4541.67 (HIV-1)
[20] = target: HIV-1 Env of pseudovirus T257-31 (HIV-1)
[21] = target: HIV-1 Env of pseudovirus X1193_c1 (HIV-1)
[22] = target: HIV-1 Env of pseudovirus THRO4156.18 (HIV-1)
[23] = target: HIV-1 Env of pseudovirus 6244_13_B5_4576 (HIV-1)
[24] = target: HIV-1 Env of pseudovirus SC05_8C11_2344 (HIV-1)
[25] = target: HIV-1 Env of pseudovirus BJOX028000.10.3 (HIV-1)
[26] = target: HIV-1 Env of pseudovirus R1166.c01 (HIV-1)
[27] = target: HIV-1 Env of pseudovirus Q842.d12 (HIV-1)
[28] = target: HIV-1 Env of pseudovirus Du172.17 (HIV-1)
[29] = target: HIV-1 Env of pseudovirus CNE17 (HIV-1)
[30] = target: HIV-1 Env of pseudovirus 3103.v3.c10 (HIV-1)
[31] = target: HIV-1 Env of pseudovirus 3016.v5.c45 (HIV-1)
[32] = target: HIV-1 Env of pseudovirus 6041.v3.c23 (HIV-1)
[33] = target: HIV-1 Env of pseudovirus X1632_S2_B10 (HIV-1)
[34] = target: HIV-1 Env of pseudovirus 89-F1_2_25 (HIV-1)
[35] = target: HIV-1 Env of pseudovirus 6540.v4.c1 (HIV-1)
[36] = target: HIV-1 Env of pseudovirus A07412M1.vrc12 (HIV-1)

N49P7.1 (antibody)
neutralization IC50 [1]: 0.063 µg/mL | neutralization IC80 [1]: 0.176 µg/mL | neutralization MPI [1]: 100 | neutralization IC50 [2]: 1.07 µg/mL | neutralization IC80 [2]: 5.4 µg/mL | neutralization MPI [2]: 100 | neutralization IC50 [3]: 0.059 µg/mL | neutralization IC80 [3]: 0.328 µg/mL | neutralization MPI [3]: 100 | neutralization IC50 [4]: 0.094 µg/mL | neutralization IC80 [4]: 0.447 µg/mL | neutralization MPI [4]: 100 | neutralization IC50 [5]: 1.58 µg/mL | neutralization IC80 [5]: 12.2 µg/mL | neutralization MPI [5]: 96 | neutralization IC50 [6]: 0.257 µg/mL | neutralization IC80 [6]: 0.853 µg/mL | neutralization MPI [6]: 100 | neutralization IC50 [7]: 0.009 µg/mL | neutralization IC80 [7]: 0.029 µg/mL | neutralization MPI [7]: 100 | neutralization IC50 [8]: 0.34 µg/mL | neutralization IC80 [8]: 1.17 µg/mL | neutralization MPI [8]: 100 | neutralization IC50 [9]: 0.307 µg/mL | neutralization IC80 [9]: 1.01 µg/mL | neutralization MPI [9]: 100 | neutralization IC50 [10]: 0.764 µg/mL | neutralization IC80 [10]: 2.71 µg/mL | neutralization MPI [10]: 100 | neutralization IC50 [11]: 0.473 µg/mL | neutralization IC80 [11]: 2.41 µg/mL | neutralization MPI [11]: 100 | neutralization IC50 [12]: > 50 µg/mL | neutralization IC80 [12]: > 50 µg/mL | neutralization MPI [12]: 47 | neutralization IC50 [13]: 0.061 µg/mL | neutralization IC80 [13]: 0.193 µg/mL | neutralization MPI [13]: 100 | neutralization IC50 [14]: 4.37 µg/mL | neutralization IC80 [14]: 30.9 µg/mL | neutralization MPI [14]: 88 | neutralization IC50 [15]: 0.048 µg/mL | neutralization IC80 [15]: 0.167 µg/mL | neutralization MPI [15]: 100 | neutralization IC50 [16]: 0.11 µg/mL | neutralization IC80 [16]: 0.498 µg/mL | neutralization MPI [16]: 100 | neutralization IC50 [17]: 0.055 µg/mL | neutralization IC80 [17]: 0.191 µg/mL | neutralization MPI [17]: 100 | neutralization IC50 [18]: 3.76 µg/mL | neutralization IC80 [18]: 15.7 µg/mL | neutralization MPI [18]: 93 | neutralization IC50 [19]: 0.022 µg/mL | neutralization IC80 [19]: 0.088 µg/mL | neutralization MPI [19]: 100 | neutralization IC50 [20]: 0.209 µg/mL | neutralization IC80 [20]: 1.04 µg/mL | neutralization MPI [20]: 100 | neutralization IC50 [21]: 0.035 µg/mL | neutralization IC80 [21]: 0.144 µg/mL | neutralization MPI [21]: 100 | neutralization IC50 [22]: 3.07 µg/mL | neutralization IC80 [22]: 12.6 µg/mL | neutralization MPI [22]: 98 | neutralization IC50 [23]: 0.184 µg/mL | neutralization IC80 [23]: 0.493 µg/mL | neutralization MPI [23]: 100 | neutralization IC50 [24]: 0.189 µg/mL | neutralization IC80 [24]: 0.688 µg/mL | neutralization MPI [24]: 100 | neutralization IC50 [25]: 0.031 µg/mL | neutralization IC80 [25]: 0.29 µg/mL | neutralization MPI [25]: 100 | neutralization IC50 [26]: 0.136 µg/mL | neutralization IC80 [26]: 0.461 µg/mL | neutralization MPI [26]: 100 | neutralization IC50 [27]: 0.028 µg/mL | neutralization IC80 [27]: 0.08 µg/mL | neutralization MPI [27]: 100 | neutralization IC50 [28]: 0.185 µg/mL | neutralization IC80 [28]: 0.748 µg/mL | neutralization MPI [28]: 100 | neutralization IC50 [29]: 0.254 µg/mL | neutralization IC80 [29]: 0.86 µg/mL | neutralization MPI [29]: 100

N49P11 (antibody)
IC50 [30]: 12.6 µg/mL | IC80 [30]: 26.4 µg/mL | MPI [30]: 100 | IC50 [31]: 8.75 µg/mL | IC80 [31]: 21.4 µg/mL | MPI [31]: 100 | IC50 [3]: 0.161 µg/mL | IC80 [3]: 0.971 µg/mL | MPI [3]: 100 | IC50 [4]: 0.418 µg/mL | IC80 [4]: 3.83 µg/mL | MPI [4]: 100 | IC50 [32]: 4.42 µg/mL | IC80 [32]: 17.6 µg/mL | MPI [32]: 100 | IC50 [33]: 9.73 µg/mL | IC80 [33]: 26.1 µg/mL | MPI [33]: 100 | IC50 [8]: 5.67 µg/mL | IC80 [8]: 18.2 µg/mL | MPI [8]: 100 | IC50 [12]: 11.7 µg/mL | IC80 [12]: 27.9 µg/mL | MPI [12]: 100 | IC50 [34]: 4.24 µg/mL | IC80 [34]: 16.6 µg/mL | MPI [34]: 100 | IC50 [15]: 0.165 µg/mL | IC80 [15]: 1.24 µg/mL | MPI [15]: 100 | IC50 [20]: 0.7 µg/mL | IC80 [20]: 2.9 µg/mL | MPI [20]: 100 | IC50 [21]: 0.179 µg/mL | IC80 [21]: 1.09 µg/mL | MPI [21]: 100 | IC50 [35]: 3.05 µg/mL | IC80 [35]: 16.3 µg/mL | MPI [35]: 100 | IC50 [25]: 5.33 µg/mL | IC80 [25]: 46.7 µg/mL | MPI [25]: 100 | IC50 [36]: 2.52 µg/mL | IC80 [36]: 12.9 µg/mL | MPI [36]: 100 | IC50 [26]: 0.06 µg/mL | IC80 [26]: 0.336 µg/mL | MPI [26]: 100
